Experimental data reported in the supplement of paper PMC5998384.

Assays:
HeLa Kyoto [1] = test: solubility change mitosis vs G1/S (difference of NP-40 vs SDS log2 ratios) (log2 ratio difference); higher = more soluble in mitosis
HeLa Kyoto [2] = test: solubility in G1/S (NP-40 vs SDS abundance) (log2 ratio); higher = more soluble; conditions: cell cycle stage: G1/S
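For solubility change mitosis vs G1/S (difference of NP-40 vs SDS log2 ratios) in this document: synchronized HeLa Kyoto cells (double thymidine block for G1/S, nocodazole release for mitosis), protein amounts in NP-40 versus SDS lysates quantified by mass spectrometry, three biological replicates.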
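For solubility in G1/S (NP-40 vs SDS abundance) in this document: HeLa Kyoto cells arrested at G1/S by double thymidine block, proteins quantified by TMT10plex mass spectrometry in mild NP-40 versus SDS extracts, three biological replicates.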

Substance: MEASRCRLSPSGDSVFHEEMMKMRQAKLDYQRLLLEKRQRKKRLEPFMVQPNPEARLRRAKPRASDEQTPLVNCHTPHSNVILHGIDGPAAVLKPDEVHAPSVSSSVVEEDAENTVDTASKPGLQERLQKHDISESVNFDEETDGISQSACLERPNSASSQNSTDTGTSGSATAAQPADNLLGDIDDLEDFVYSPAPQGVTVRCRIIRDKRGMDRGLFPTYYMYLEKEENQKIFLLAARKRKKSKTANYLISIDPVDLSREGESYVGKLRSNLMGTKFTVYDRGICPMKGRGLVGAAHTRQELAAISYETNVLGFKGPRKMSVIIPGMTLNHKQIPYQPQNNHDSLLSRWQNRTMENLVELHNKAPVWNSDTQSYVLNFRGRVTQASVKNFQIVHKNDPDYIVMQFGRVADDVFTLDYNYPLCAVQAFGIGLSSFDSKLACE [TULP3]
- solubility change mitosis (log2) (HeLa Kyoto [1]): -0.00836
- solubility in G1/S (log2) (HeLa Kyoto [2]): 0.0464

Substance: MED13L
- solubility change mitosis (log2) (HeLa Kyoto [1]): -0.119
- solubility in G1/S (log2) (HeLa Kyoto [2]): 0.0923

Substance: MEEVREGHALGGGMEADGPASLQELPPSPRSPSPPPSPPPLPSPPSLPSPAAPEAPELPEPAQPSEAHARQLLLEEWGPLSGGLELPQRLTWKLLLLRRPLYRNLLRSPNPEGINIYEPAPPTGPTQRPLETLGNFRGWYIRTEKLQQNQSWTVKQQCVDLLAEGLWEELLDDEQPAITVMDWFEDSRLDACVYELHVWLLAADRRTVIAQHHVAPRTSGRGPPGRWVQVSHVFRHYGPGVRFIHFLHKAKNRMEPGGLRRTRVTDSSVSVQLRE [NCCRP1]
- solubility change mitosis (log2) (HeLa Kyoto [1]): -0.0982
- solubility in G1/S (log2) (HeLa Kyoto [2]): 0.178

Substance: MEEVTTCSFNSPLFRQEDDRGITYRIPALLYIPPTHTFLAFAEKRSTRRDEDALHLVLRRGLRIGQLVQWGPLKPLMEATLPGHRTMNPCPVWEQKSGCVFLFFICVRGHVTERQQIVSGRNAARLCFIYSQDAGCSWSEVRDLTEEVIGSELKHWATFAVGPGHGIQLQSGRLVIPAYTYYIPSWFFCFQLPCKTRPHSLMIYSDDLGVTWHHGRLIRPMVTVECEVAEVTGRAGHPVLYCSARTPNRCRAEALSTDHGEGFQRLALSRQLCEPPHGCQGSVVSFRPLEIPHRCQDSSSKDAPTIQQSSPGSSLRLEEEAGTPSESWLLYSHPTSRKQRVDLGIYLNQTPLEAACWSRPWILHCGPCGYSDLAALEEEGLFGCLFECGTKQECEQIAFRLFTHREILSHLQGDCTSPGRNPSQFKSN [NEU3]
- solubility change mitosis (log2) (HeLa Kyoto [1]): -0.0358
- solubility in G1/S (log2) (HeLa Kyoto [2]): -0.0555

Substance: MEGRPPPEGRPPPRPRTGRAPRGRRRAVFAAVLHWSHITHLFENDRHFSHLSTLEREMAFRTEMGLYYSYFKTIVEAPSFLNGVWMIMNDKLTEYPLVINTLKRFNLYPEVILASWYRIYTKIMDLIGIQTKICWTVTRGEGLSPIESCEGLGDPACFYVAVIFILNGLMMALFFIYGTYLSGSRLGGLVTVLCFFFNHGECTRVMWTPPLRESFSYPFLVLQMLLVTHILRATKLYRGSLIALCISNVFFMLPWQFAQFVLLTQIASLFAVYVVGYIDICKLRKIIYIHMISLALCFVLMFGNSMLLTSYYASSLVIIWGILAMKPHFLKINVSELSLWVIQGCFWLFGTVILKYLTSKIFGIADDAHIGNLLTSKFFSYKDFDTLLYTCAAEFDFMEKETPLRYTKTLLLPVVLVVFVAIVRKIISDMWGVLAKQQTHVRKHQFDHGELVYHALQLLAYTALGILIMRLKLFLTPHMCVMASLICSRQLFGWLFCKVHPGAIVFAILAAMSIQGSANLQTQWNIVGEFSNLPQEELIEWIKYSTKPDAVFAGAMPTMASVKLSALRPIVNHPHYEDAGLRARTKIVYSMYSRKAAEEVKRELIKLKVNYYILEESWCVRRSKPGCSMPEIWDVEDPANAGKTPLCNLLVKDSKPHFTTVFQNSVYKVLEVVKE [DPY19L1]
- solubility change mitosis (log2) (HeLa Kyoto [1]): 0.0231
- solubility in G1/S (log2) (HeLa Kyoto [2]): -0.264

Substance: MEKRLQEAQLYKEEGNQRYREGKYRDAVSRYHRALLQLRGLDPSLPSPLPNLGPQGPALTPEQENILHTTQTDCYNNLAACLLQMEPVNYERVREYSQKVLERQPDNAKALYRAGVAFFHLQDYDQARHYLLAAVNRQPKDANVRRYLQLTQSELSSYHRKEKQLYLGMFG [TTC9C]
- solubility change mitosis (log2) (HeLa Kyoto [1]): 0.459
- solubility in G1/S (log2) (HeLa Kyoto [2]): 0.247

Substance: MEKSWMLWNFVERWLIALASWSWALCRISLLPLIVTFHLYGGIILLLLIFISIAGILYKFQDVLLYFPEQPSSSRLYVPMPTGIPHENIFIRTKDGIRLNLILIRYTGDNSPYSPTIIYFHGNAGNIGHRLPNALLMLVNLKVNLLLVDYRGYGKSEGEASEEGLYLDSEAVLDYVMTRPDLDKTKIFLFGRSLGGAVAIHLASENSHRISAIMVENTFLSIPHMASTLFSFFPMRYLPLWCYKNKFLSYRKISQCRMPSLFISGLSDQLIPPVMMKQLYELSPSRTKRLAIFPDGTHNDTWQCQGYFTALEQFIKEVVKSHSPEEMAKTSSNVTII [ABHD13]
- solubility change mitosis (log2) (HeLa Kyoto [1]): -0.176
- solubility in G1/S (log2) (HeLa Kyoto [2]): -0.091

Substance: MELPAVNLKVILLGHWLLTTWGCIVFSGSYAWANFTILALGVWAVAQRDSIDAISMFLGGLLATIFLDIVHISIFYPRVSLTDTGRFGVGMAILSLLLKPLSCCFVYHMYRERGGELLVHTGFLGSSQDRSAYQTIDSAEAPADPFAVPEGRSQDARGY [AGTRAP]
- solubility change mitosis (log2) (HeLa Kyoto [1]): -0.217
- solubility in G1/S (log2) (HeLa Kyoto [2]): 0.0387

Substance: MENCSAASTFLTDSLELELGTEWCKPPYFSCAVDNRGGGKHFSGESYLCSGALKRLILNLDPLPTNFEEDTLEIFGIQWVTETALVNSSRELFHLFRQQLYNLETLLQSSCDFGKVSTLHCKADNIRQQCVLFLHYVKVFIFRYLKVQNAESHVPVHPYEALEAQLPSVLIDELHGLLLYIGHLSELPSVNIGAFVNQNQIKLFPPSWHLLHLHLDIHWLVLEILYMLGEKLKQVVYGHQFMNLASDNLTNISLFEEHCETLLCDLISLSLNRYDKVRSSESLMSDQCPCLCIKELWVLLIHLLDHRSKWFVSESFWNWLNKLLKTLLEKSSDRRRSSMPVIQSRDPLGFSWWIITHVASFYKFDRHGVPDEMRKVESNWNFVEELLKKSISVQGVILEEQLRMYLHCCLTLCDFWEPNIAIVTILWEYYSKNLNSSFSISWLPFKGLANTMKSPLSMLEMVKTCCCDKQDQELYKSSSSYTIFLCILAKVVKKAMKSNGPHPWKQVKGRIYSKFHQKRMEELTEVGLQNFFSLFLLLAAVAEVEDVASHVLDLLNFLKPAFVTSQRALIWKGHMAFLLMYAQKNLDIGVLAEKFSCAFREKAKEFLVSKNEEMVQRQTIWTLLSIYIDGVQEVFETSYCLYPSHEKLLNDGFSMLLRACRESELRTVLSFLQAVLARIRSMHQQLCQELQRDNVDLFVQSSLSAKERHLAAVASALWRHFFSFLKSQRMSQVVPFSQLADAAADFTLLAMDMPSTAPSDFQPQPVISIIQLFGWDDIICPQVVARYLSHVLQNSTLCEALSHSGYVSFQALTVRSWIRCVLQMYIKNLSGPDDLLIDKNLEEAVEKEYMKQLVKLTRLLFNLSEVKSIFSKAQVEYLSISEDPKKALVRFFEAVGVTYGNVQTLSDKSAMVTKSLEYLGEVLKYIKPYLGKKVFSAGLQLTYGMMGILVKSWAQIFATSKAQKLLFRIIDCLLLPHAVLQQEKELPAPMLSAIQKSLPLYLQGMCIVCCQSQNPNAYLNQLLGNVIEQYIGRFLPASPYVSDLGQHPVLLALRNTATIPPISSLKKCIVQVIRKSYLEYKGSSPPPRLASILAFILQLFKETNTDIYEVELLLPGILKCLVLVSEPQVKRLATENLQYMVKACQVGSEEEPSSQLTSVFRQFIQDYGMRYYYQVYSILETVATLDQQVVIHLISTLTQSLKDSEQKWGLGRNIAQREAYSKLLSHLGQMGQDEMQRLENDNT [MMS22L]
- solubility change mitosis (log2) (HeLa Kyoto [1]): -0.109
- solubility in G1/S (log2) (HeLa Kyoto [2]): -0.523

Substance: MEPKVAELKQKIEDTLCPFGFEVYPFQVAWYNELLPPAFHLPLPGPTLAFLVLSTPAMFDRALKPFLQSCHLRMLTDPVDQCVAYHLGRVRESLPELQIEIIADYEVHPNRRPKILAQTAAHVAGAAYYYQRQDVEADPWGNQRISGVCIHPRFGGWFAIRGVVLLPGIEVPDLPPRKPHDCVPTRADRIALLEGFNFHWRDWTYRDAVTPQERYSEEQKAYFSTPPAQRLALLGLAQPSEKPSSPSPDLPFTTPAPKKPGNPSRARSWLSPRVSPPASPGP [MMACHC]
- solubility change mitosis (log2) (HeLa Kyoto [1]): 0.0886
- solubility in G1/S (log2) (HeLa Kyoto [2]): 0.0435

Substance: METAPKPGKDVPPKKDKLQTKRKKPRRYWEEETVPTTAGASPGPPRNKKNRELRPQRPKNAYILKKSRISKKPQVPKKPREWKNPESQRGLSGTQDPFPGPAPVPVEVVQKFCRIDKSRKLPHSKAKTRSRLEVAEAEEEETSIKAARSELLLAEEPGFLEGEDGEDTAKICQADIVEAVDIASAAKHFDLNLRQFGPYRLNYSRTGRHLAFGGRRGHVAALDWVTKKLMCEINVMEAVRDIRFLHSEALLAVAQNRWLHIYDNQGIELHCIRRCDRVTRLEFLPFHFLLATASETGFLTYLDVSVGKIVAALNARAGRLDVMSQNPYNAVIHLGHSNGTVSLWSPAMKEPLAKILCHRGGVRAVAVDSTGTYMATSGLDHQLKIFDLRGTYQPLSTRTLPHGAGHLAFSQRGLLVAGMGDVVNIWAGQGKASPPSLEQPYLTHRLSGPVHGLQFCPFEDVLGVGHTGGITSMLVPGAGEPNFDGLESNPYRSRKQRQEWEVKALLEKVPAELICLDPRALAEVDVISLEQGKKEQIERLGYDPQAKAPFQPKPKQKGRSSTASLVKRKRKVMDEEHRDKVRQSLQQQHHKEAKAKPTGARPSALDRFVR [WDR46]
- solubility change mitosis (log2) (HeLa Kyoto [1]): 0.592
- solubility in G1/S (log2) (HeLa Kyoto [2]): -1.25

Substance: MFHSPRRLCSALLQRDAPGLRRLPAPGLRRPLSPPAAVPRPASPRLLAAASAASGAARSCSRTVCSMGTGTSRLYSALAKTLNSSAASQHPEYLVSPDPEHLEPIDPKELLEECRAVLHTRPPRFQRDFVDLRTDCPSTHPPIRVMQWNILAQALGEGKDNFVQCPVEALKWEERKCLILEEILAYQPDILCLQEVDHYFDTFQPLLSRLGYQGTFFPKPWSPCLDVEHNNGPDGCALFFLQNRFKLVNSANIRLTAMTLKTNQVAIAQTLECKESGRQFCIAVTHLKARTGWERFRSAQGCDLLQNLQNITQGAKIPLIVCGDFNAEPTEEVYKHFASSSLNLNSAYKLLSADGQSEPPYTTWKIRTSGECRHTLDYIWYSKHALNVRSALDLLTEEQIGPNRLPSFNYPSDHLSLVCDFSFTEESDGLS [NOCT]
- solubility change mitosis (log2) (HeLa Kyoto [1]): -0.0975
- solubility in G1/S (log2) (HeLa Kyoto [2]): 0.0632

Substance: MFLQYYLNEQGDRVYTLKKFDPMGQQTCSAHPARFSPDDKYSRHRITIKKRFKVLMTQQPRPVL [NOP10]
- solubility change mitosis (log2) (HeLa Kyoto [1]): 0.778
- solubility in G1/S (log2) (HeLa Kyoto [2]): -1.06

Substance: MFPVFPCTLLAPPFPVLGLDSRGVGGLMNSFPPPQGHAQNPLQVGAELQSRFFASQGCAQSPFQAAPAPPPTPQAPAAEPLQVDLLPVLAAAQESAAAAAAAAAAAAAVAAAPPAPAAASTVDTAALKQPPAPPPPPPPVSAPAAEAAPPASAATIAAAAATAVVAPTSTVAVAPVASALEKKTKSKGPYICALCAKEFKNGYNLRRHEAIHTGAKAGRVPSGAMKMPTMVPLSLLSVPQLSGAGGGGGEAGAGGGAAAVAAGGVVTTTASGKRIRKNHACEMCGKAFRDVYHLNRHKLSHSDEKPYQCPVCQQRFKRKDRMSYHVRSHDGAVHKPYNCSHCGKSFSRPDHLNSHVRQVHSTERPFKCEKCEAAFATKDRLRAHTVRHEEKVPCHVCGKMLSSAYISDHMKVHSQGPHHVCELCNKGTGEVCPMAAAAAAAAAAAAAAVAAPPTAVGSLSGAEGVPVSSQPLPSQPW [MAZ]
- solubility change mitosis (log2) (HeLa Kyoto [1]): 0.19
- solubility in G1/S (log2) (HeLa Kyoto [2]): 0.0657
